Biological target: CoV2_5P_FPKO1 (SARS-CoV-2) (UniProt P0DTC2)
Assay: ELISA

CR3022 (antibody)
EC50 (read off the curve): 0.01 µg/mL

— patent US20250134988A1
